In experiment [1] the target is T1, human CEACAM5 on MKN-45 cells (human, UniProt P06731 35-685).
T1 construct: Endogenous CEACAM5 on MKN-45 gastric adenocarcinoma cells, which also carry CD47 (and CEACAM6); also called CD66e; MKN45 CEA+ cancer cells
T1 sequence: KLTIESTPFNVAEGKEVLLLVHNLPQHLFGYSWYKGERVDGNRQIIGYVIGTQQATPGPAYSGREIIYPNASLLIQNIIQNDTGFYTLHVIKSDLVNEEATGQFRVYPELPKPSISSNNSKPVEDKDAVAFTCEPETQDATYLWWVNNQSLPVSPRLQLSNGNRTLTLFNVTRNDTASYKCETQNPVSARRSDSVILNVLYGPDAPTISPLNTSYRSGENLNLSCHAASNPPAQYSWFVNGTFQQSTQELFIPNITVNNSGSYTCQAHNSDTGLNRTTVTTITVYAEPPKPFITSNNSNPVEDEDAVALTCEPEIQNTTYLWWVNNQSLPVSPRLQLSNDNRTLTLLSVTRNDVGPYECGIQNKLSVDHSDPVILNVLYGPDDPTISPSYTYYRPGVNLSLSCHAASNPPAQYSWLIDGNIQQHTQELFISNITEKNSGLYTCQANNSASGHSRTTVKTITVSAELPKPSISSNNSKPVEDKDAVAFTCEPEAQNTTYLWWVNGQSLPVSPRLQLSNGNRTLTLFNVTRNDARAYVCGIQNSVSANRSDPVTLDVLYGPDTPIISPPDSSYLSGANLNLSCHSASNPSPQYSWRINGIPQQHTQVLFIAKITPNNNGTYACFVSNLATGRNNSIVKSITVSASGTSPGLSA
The experiment is described as follows: flow cytometry on MKN45 CEA+ cells (carry CEACAM5 and CD47). In general terms: A flow cytometer gives signals particle by particle.

For experiment [2], the target named is T2, human CD47 on MKN45 cells (human, UniProt Q08722 19-323).
T2 construct: whole, on cells; also called IAP
The experiment is described as follows: inhibition of SIRPα-mouseFc binding to CD47 on MKN45 cells, imaging (CX5). From the text: The detection of bound SIRPα cell-based assay monitoring the interaction of soluble SIRPα with human CD47 expressed at the surface of MKN45 is used for the detection of the blocking activity. Dose-response experiments with bispecific antibodies according to the invention allow determination of an IC50 value.
MKN45 cancer cells, expressing both CD47 and CEACAM5, are stained with CFSE violet to allow the imaging system (CX5) to detect the cells. Briefly, 3,000 stained MKN45 cells per well are seeded in a 384 optical well plate (Costar) and incubated for 50 minutes with increased concentrations of bispecific antibodies of the invention (1.9 pM to 333 nM, in quadruplicates). Then, a fixe concentration of SIRPα-mouseFc premixed with anti-mouse IgG-Fc AF647 coupled antibody (Jackson Immunoresearch diluted 1:2000) is added at 50 ng/mL final. After an incubation of 3H30 plates are acquired with the imaging system (CX5, Thermofisher) and fluorescence signals emitted by the detected bound SIRPα is recorded by the software dedicated to the imaging system. Fluorescence signals are plotted according to the dose range tested and IC50 are calculated by the software (Prism, Graphpad).

Experiment [3] addresses T3, human CEACAM6 (human, UniProt P40199 35-320).
T3 construct: also called CD66c; biotinylated recombinant human CEACAM6
T3 sequence (looked up): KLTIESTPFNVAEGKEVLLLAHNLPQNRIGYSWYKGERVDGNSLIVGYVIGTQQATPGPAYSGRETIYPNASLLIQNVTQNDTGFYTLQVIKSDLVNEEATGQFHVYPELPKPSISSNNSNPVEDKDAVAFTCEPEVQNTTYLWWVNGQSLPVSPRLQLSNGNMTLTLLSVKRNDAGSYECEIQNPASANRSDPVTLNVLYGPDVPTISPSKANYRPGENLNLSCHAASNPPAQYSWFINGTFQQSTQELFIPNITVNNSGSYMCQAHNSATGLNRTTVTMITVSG
Kind of experiment: ELISA on biotinylated recombinant human CEACAM6 captured on streptavidin, bivalent mAb. Here is the method:
Biotinylated recombinant human CEACAM5 or CEACAM6 proteins are captured at 0.5 μg/mL in a streptavidin coated 96-well microplate. The plate is washed and monoclonal anti-CEA bivalent antibodies of the present invention are added as a broad concentration-range (e.g. from […] to 1 μg/mL) and incubated during 1 hr. The plate is washed and bound antibodies are detected with an anti-human IgG(Fc)-HRP (Jackson ImmunoResearch). […] The fluorescence signal is measured on a Synergy HT plate reader (Biotek).
(In general: An ELISA detects its analyte on a solid surface through an enzyme-linked reagent.)

Experiment [4] has as its target T4, shed CEA (soluble CEA) (human, UniProt P06731 35-685, limits assumed).
T4 sequence (looked up): T1 sequence with K364E
Kind of experiment: cell-based or functional assay.

Experiment [5] deals with T1, human CEACAM5 on MKN-45 cells. Kind of experiment: binding to MKN-45 cells (MFI), without shed CEA.
Experiment [6] shares this target. Kind of experiment: flow cytometry on MKN45 CEA+ cells (carry CEACAM5 and CD47); MKN45 CEA+ cancer cells.
Experiment [7] shares this target. The experiment is described as follows: binding to MKN-45 cells (MFI), in the presence of 200 ng/mL shed CEA.
Experiment [8] has the same target. The experiment is described as follows: FACS binding to MKN-45 cells, which express CD47, CEACAM5 and CEACAM6; K2AC39 is cross-reactive to CEACAM6.

Where a chain is given by its changes, count along the chain named.

B1: K2AC10 CEA×CD47 bispecific antibody (bispecific antibody, human IgG1, kappa, lambda)
heavy: not shown
light 1: QSVLTQPPSVSGAPGQRVTISCTGSSSNIYANSNVHWYQQLPGTAPKLLIYSGSNRPSGVPDRFSGSKSGTSASLAITGLQAEDEADYYCQSYDPAHNLLTAVFGGGTKLTVLGQPKAAPSVTLFPPSSEELQANKATLVCLISDFYPGAVTVAWKADSSPVKAGVETTTPSKQSNNKYAASSYLSLTPEQWKSHRSYSCQVTHEGSTVEKTVAPTECS
light 2: not shown
notes: κλ body, human IgG1, common heavy chain; CEACAM5 arm light chain 1D5 (AC10)
One may read the EC50 as the concentration at which the effect is half-maximal. Broadly, the IC50 is the midpoint of a concentration-inhibition curve. Low readings indicate inhibition by little substance, high ones a need for much substance. B1 registered an EC50 in experiment [1] of 1.15 nM. The IC50 in experiment [2] worked out at 0.22 nM.

B2: AC22 anti-CEA bivalent monoclonal antibody (antibody, human IgG1, lambda, V domains shown)
VH: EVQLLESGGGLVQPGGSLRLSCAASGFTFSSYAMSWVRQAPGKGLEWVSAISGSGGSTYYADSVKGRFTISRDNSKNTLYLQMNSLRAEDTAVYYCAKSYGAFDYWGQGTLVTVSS
VL: QSVLTQPPSVSAAPGQKVTISCSGSSSNIANGIVSWYQQLPGTAPKLLIYFDNLRPSGIPDRFSGSKSGTSATLGITGLQTGDEADYYCGTWDFSYGIVFGGGTKLTVLG
notes: also called 1G6; anti-CEA bivalent mAb of K2AC22
In the case of B2, in experiment [3], the binding result was “no binding”.

B3: K2AC25 CEA×CD47 bispecific antibody (bispecific antibody, human IgG1, kappa, lambda)
heavy: not shown
light 1: QSVLTQPPSVSAAPGQKVTISCSGSSSNIGITPVSWYQQLPGTAPKLLIYSNNFRPSGIPDRFSGSKSGTSATLGITGLQTGDEADYYCGTWDRTGHEIRPVFGGGTKLTVLGQPKAAPSVTLFPPSSEELQANKATLVCLISDFYPGAVTVAWKADSSPVKAGVETTTPSKQSNNKYAASSYLSLTPEQWKSHRSYSCQVTHEGSTVEKTVAPTECS
light 2: not shown
notes: κλ body, human IgG1, common heavy chain; CEACAM5 arm light chain 2F4 (AC25)
B3: in experiment [1], the midpoint of the response, the EC50, lay at 13 nM. This molecule displayed a half-maximal inhibitory concentration (IC50) in experiment [2] of 0.22 nM.

B4: K2AC5 CEA×CD47 bispecific antibody (bispecific antibody, human IgG1, kappa, lambda)
heavy: not shown
light 1: QSVLTQPPSVSAAPGQKVTISCSGSSSNIGYGLVSWYQQLPGTAPKLLIYAGNLRPSGIPDRFSGSKSGTSATLGITGLQTGDEADYYCGTWDFNYGVVFGGGTKLTVLGQPKAAPSVTLFPPSSEELQANKATLVCLISDFYPGAVTVAWKADSSPVKAGVETTTPSKQSNNKYAASSYLSLTPEQWKSHRSYSCQVTHEGSTVEKTVAPTECS
light 2: not shown
notes: κλ body, human IgG1, common heavy chain; CEACAM5 arm light chain 1D9 (AC5) with lambda constant domain, CD47 arm kappa light chain KA3 (K2); also called CD47×CEA bispecific antibody K2AC5
One may read the EC50 (read off the curve) as the concentration needed to bring the measured effect to its halfway point. For B4, the “shift of EC50 of the phagocytosis index curve of MKN-45 cells by 200 ng/mL shed CEA” value in experiment [4] was less than 4 fold. Moreover, the “EC50 (read off the curve)” value in experiment [5] and in experiment [7] was approximately 0.3 µg/mL each time. Also, in experiment [2], the concentration for half-maximal inhibition (IC50) worked out at 0.4 nM. The molecule further registered an EC50 in experiment [6] of 11.3 nM.

B5: K2AC39 CD47×CEA bispecific antibody (bispecific antibody, human IgG1, kappa, lambda)
heavy: not shown
light 1: QSVLTQPPSVSAAPGQKVTISCSGSSSEITASGVSWYQQLPGTAPKLLIYDNNKRPSGIPDRFSGSKSGTSATLGITGLQTGDEADYYCGTWDFPPSRFVFGGGTKLTVLGQPKAAPSVTLFPPSSEELQANKATLVCLISDFYPGAVTVAWKADSSPVKAGVETTTPSKQSNNKYAASSYLSLTPEQWKSHRSYSCQVTHEGSTVEKTVAPTECS
light 2: not shown
notes: κλ body with common heavy chain; CEACAM5/CEACAM6 arm light chain 1B2 (AC39)
For B5, the “EC50 (read off the curve)” value in experiment [8] is approximately 3 µg/mL.

B6: K2AC27 CEA×CD47 bispecific antibody (bispecific antibody, human IgG1, kappa, lambda)
heavy: not shown
light 1: QSVLTQPPSVSGAPGQRVTISCTGSSSNIGYADKVHWYQQLPGTAPKLLIYNNSDRPSGVPDRFSGSKSGTSASLAITGLQAEDEADYYCQSYDGYNMLTAVFGGGTKLTVLGQPKAAPSVTLFPPSSEELQANKATLVCLISDFYPGAVTVAWKADSSPVKAGVETTTPSKQSNNKYAASSYLSLTPEQWKSHRSYSCQVTHEGSTVEKTVAPTECS
light 2: not shown
notes: κλ body, human IgG1, common heavy chain; CEACAM5 arm light chain 2C11 (AC27)
Molecule B6 registered an EC50 in experiment [1] of 12.5 nM. Moreover, in experiment [2], the IC50 was found to be 0.86 nM.

B7: K2AC13 CEA×CD47 bispecific antibody (bispecific antibody, human IgG1, kappa, lambda)
heavy: not shown
light 1: QSALTQPASVSGSPGQSITISCTGTSSNVRYAAGVSWYQQHPGKAPKLMIYEVSNRPSGVSNRFSGSKSGNTASLTISGLQAEDEADYYCSSWDFEHGPAAKVFGGGTKLTVLGQPKAAPSVTLFPPSSEELQANKATLVCLISDFYPGAVTVAWKADSSPVKAGVETTTPSKQSNNKYAASSYLSLTPEQWKSHRSYSCQVTHEGSTVEKTVAPTECS
light 2: not shown
notes: κλ body, human IgG1, common heavy chain; CEACAM5 arm light chain 2B8 (AC13)
In the case of B7, the EC50 in experiment [1] is 190 nM. The molecule further registered an IC50 in experiment [2] of 4 nM.

B8: K2AC28 CEA×CD47 bispecific antibody (bispecific antibody, human IgG1, kappa, lambda)
heavy: not shown
light 1: NFMLTQPHSVSESPGKTVTISCTRSSGSINDITVHWYQQRPGSSPTTVIYGYNARPSGVPDRFSGSIDSSSNSASLTISGLKTEDEADYYCQSWDGHGSAYVFGGGTKLTVLGQPKAAPSVTLFPPSSEELQANKATLVCLISDFYPGAVTVAWKADSSPVKAGVETTTPSKQSNNKYAASSYLSLTPEQWKSHRSYSCQVTHEGSTVEKTVAPTECS
light 2: not shown
notes: κλ body, human IgG1, common heavy chain; CEACAM5 arm light chain C11 (AC28)
In experiment [1], B8 returned an EC50 of 52.5 nM. Also, the IC50 in experiment [2] is 0.95 nM.

B9: K2AC18 CEA×CD47 bispecific antibody (bispecific antibody, human IgG1, kappa, lambda)
heavy: not shown
light 1: SYVLTQPPSVSVAPGKTARITCGGNGIGDASVHWYQQKPGQAPVLVIYSTTTRPSGIPERFSGSNSGNTATLTISRVEAGDEADYYCQVWDGFGPRHRAVFGGGTKLTVLGQPKAAPSVTLFPPSSEELQANKATLVCLISDFYPGAVTVAWKADSSPVKAGVETTTPSKQSNNKYAASSYLSLTPEQWKSHRSYSCQVTHEGSTVEKTVAPTECS
light 2: not shown
notes: κλ body, human IgG1, common heavy chain; CEACAM5 arm light chain 1A2 (AC18)
Molecule B9 showed an EC50 in experiment [1] of 132 nM. For the same molecule, the IC50 in experiment [2] stood at 7 nM.

B10: K2AC26 CEA×CD47 bispecific antibody (bispecific antibody, human IgG1, kappa, lambda)
heavy: not shown
light 1: QSALTQPASVSGSPGQSITISCTGTSSDVKYANAVSWYQQHPGKAPKLMIYSNSIRPSGVSNRFSGSKSGNTASLTISGLQAEDEADYYCSSYDPRGNLLIRVFGGGTKLTVLGQPKAAPSVTLFPPSSEELQANKATLVCLISDFYPGAVTVAWKADSSPVKAGVETTTPSKQSNNKYAASSYLSLTPEQWKSHRSYSCQVTHEGSTVEKTVAPTECS
light 2: not shown
notes: κλ body, human IgG1, common heavy chain; CEACAM5 arm light chain 2F7 (AC26)
B10 yielded an EC50 in experiment [1] of 12.7 nM. In experiment [2], the IC50 is 0.32 nM.

B11: K2AC29 CEA×CD47 bispecific antibody (bispecific antibody, human IgG1, kappa, lambda)
heavy: not shown
light 1: QSALTQPASVSGSPGQSITISCTGTSSDVEFTNGVSWYQQHPGKAPKLMIYGFSSRPSGVSNRFSGSKSGNTASLTISGLQAEDEADYYCSSYDPPWHLLARVFGGGTKLTVLGQPKAAPSVTLFPPSSEELQANKATLVCLISDFYPGAVTVAWKADSSPVKAGVETTTPSKQSNNKYAASSYLSLTPEQWKSHRSYSCQVTHEGSTVEKTVAPTECS
light 2: not shown
notes: κλ body, human IgG1, common heavy chain; CEACAM5 arm light chain 2B5 (AC29)
In turn, B11 gave an EC50 in experiment [1] of 14.5 nM. Further, the IC50 in experiment [2] amounted to 0.72 nM.

The record behind these values is US20200123252A1 (LAMKAP BIO BETA, published 2020).
